B1: Q6ZQL4 (protein, UniProt Q6ZQL4 1-677, looked up)
chain: MAAGGGGSYDPLAPAGVPCAFSPDSQAYFALASSDGQLRVWETANNRLHQEYVPSAHLSGTCTCLAWAPARLQAKESHQRKKRKSEVTGTKDQADLLALGTAVGSILLYSTVRGELHSKLTSGGHENRVNCIQWHQDNDCLYSCSDDKYIVEWSTQTCKVKCKWKGDNSSVSSLCISPDGKMLLSAGRTIKLWVLETKEVYRHFTGHATPVSSLRFTTIRPNESQPSDGITGLYFLSGAVHDRLLNVWQVRSENKEKSAVMSFTVTDEPVYVDLTLSENKEEPVKLAVVCRDGQVHLFEHILNGHCKKPLTSNCTIQIATPGKGKKVTPKPIPILAASFCLDKMSLLLVYGNWFQPTIERVALNSKDTHICLERDISNCWAPTVETAITKVKTPVMNSEAKVLVPGIPGHHAPIKLPPAQPKEAENKRKLGSTEATIEERLGAMDLDRKGRKDDLQTNSFAVLLTQGLESNDFEILNKVLQTKNVNLIKRTVLRIPLRVVIPLLQELTKRLQGHPNSAALMIQWLKCVLTIHASYLSTLPDLVEQLGTLYQLMESRVKTFQKLSNLHGKLILLVTQVTASEKSKKMTSPGQKAKLVYEEESSEEESDDEVPEKDSDDNWDEDEDKDSEKDEGVDEDNEEEDEDMEDKEENEEDREVSSEKELNGDSDLDPENESEEE
modifications: full-length
B2: Q6PCN3 (protein, UniProt Q6PCN3 1-1308, looked up)
chain: MQCLAAALKDETNMSGGGEQADILPANYVVKDRWKVLKKIGGGGFGEIYEAMDLLTRENVALKVESAQQPKQVLKMEVAVLKKLQGKDHVCRFIGCGRNEKFNYVVMQLQGRNLADLRRSQPRGTFTLSTTLRLGKQILESIEAIHSVGFLHRDIKPSNFAMGRLPSTYRKCYMLDFGLARQYTNTTGDVRPPRNVAGFRGTVRYASVNAHKNREMGRHDDLWSLFYMLVEFAVGQLPWRKIKDKEQVGMIKEKYEHRMLLKHMPSEFHLFLDHIASLDYFTKPDYQLIMSVFENSMKERGIAENEAFDWEKAGTDALLSTSTSTPPQQNTRQTAAMFGVVNVTPVPGDLLRENTEDVLQGEHLSDQENAPPILPGRPPEGLGPGPHLVPHPGGPEAEVWEETDVNRNKLRINIGKTPCVEEEQSRGVGVPSSPVRAPPDSPTTPVRSLCYRRVNSPESERLSTAADGRVELQERRSRMDLPGSPSRQACSSQPAQMLSVDTGHADRQASGRMDVSASVEQEALSNAFRSVPLAEEEDFDSKEWVIIDKETELKDFPPGAEPSTSGTTDEEPEELRPLPEEGEERRRLGTEPTVRPRGRGMHTLTEEDPRQMLPQPAPPQLSQADGRSETSQPPTPGSPSHSPLHSGPRPRRRESDPTGPQRQVFSVAPPFEVNGLPRAVPLALPYQDFKRDLSDYRERARLLNRVRRVGFSHMLLTAPQVPLAPFQPQANGKEGEEEEEEEEEEEEEEEEEEEEEEEEEEEEEEEEEAGALGEVLGPRSGSSSEGSERSTERSQEGAPSTLLADDQKEARGRASMADGDLEPEEGSKTLVLVSPGDMKKSPVTAELAPDPDLGTLAALTPQHERPQPTGSQLDVSEPGTLSSILKSEPKPSGPGAGGGVGLVAPGAGVTAVTSPFTKVERTFVHIAEKSHLNVMSSGGQASRPEELSTGGELGLEVLSEGGIAEEGAPAPLENGMALAGLDGTEMESCALSGPPGETPSEVVTDSLPNGPALADGPAPASQQEPVTKKGTTISPSRHAMPGSRPRSRIPVLLSEEDTGSEPSGSLSAKERWSKRARPQQDLARLVMEKRQGRLLLRLASGASSSSSEEQRRASETLSGTGSEEDTPASEPTTALPRKAVRAATTRSRIPRPISVSMPVEGQQLPGRPHGAASATDLAITSRLQLQKPSGLAPAADLRPKQSASRGPGPGRAQVSKPAAPRSPGLPASTARHPSGSPRSQSLSRKESSSPSHQARPGVPPSRGVLQVRSQPEASPVAPKKGPKGKQLQTQRAATKGRAVVSEGRPGAR
modifications: full-length
B3: Q768S4 (protein, UniProt Q768S4 1-302, looked up)
chain: MADTIFSSGNDQWVCPNDRQLALRAKLQTGWSVHTYQTEKQRRSQCLSPGELEIILQVIQRAERLDILEQQRIGRLVERLETMQRNVMGNGLSQCLLCGEVLGFLGSSSVFCKDCRKKVCTKCGIEASPGQKRPLWLCKICSEQREVWKRSGAWFYKGLPKYILPLKTPGRADDPHFRPLPVEPTETQPPSAETSRVYTWARGRVVSSDSDSDSDLSSSSLEDRPLPSGVKGTKGDKPRGDSGASMESPRLGPARPPSHLSGSQSSLGSEAGTGATEPQGGTPAQPEPRVPGKRHTWATPRY
modifications: full-length
B4: Q7TQD2 (protein, UniProt Q7TQD2 1-218, looked up)
chain: MADSKAKPAKAANKTPPKSPGDPARAAKRLSLESEGANEGATAAPELSALEEAFRRFAVHGDTRATGKEMHGKNWSKLCKDCHVIDGKNVTVTDVDIVFSKIKGKSCRTITFEQFQEALEELAKKRFKDKSSEEAVREVHRLIEGRAPVISGVTKAVSSPTVSRLTDTSKFTGSHKERFDQSGKGKGKAGRVDLVDESGYVPGYKHAGTYDQKVQGGK
modifications: full-length
B5: Q80V42 (protein, UniProt Q80V42 1-443, looked up)
chain: MDRARLWLGLLLPVVAALDFRYHHQEGMEAFLKSVAQNYSSITHLHSIGKSVRGRNLWVLVVGQTPKEHRVGIPEFKYVANMHGDETVGRELLLHLIDYLVSSYRKDPEITHLIDSTRIHIMPSMNPDGFEAVQKPDCYYSNGRENYNNYDLNRNFPDAFENNNVTKQPETLAIMEWLKTETFVLSANLHGGALVASYPFDNGVQATGTLLSRSLTPDDDVFQHLAYTYASRNPNMTKGDQCKNKRNFPNGIINGYSWYPLQGGMQDYNYIWAQCFEITLELSCCKYPREEKLPLFWNDNKASLIEYIKQVHLGVKGQVFDQSGAPLPNVIVEVQDRKHICPFRTNKLGEYYLLLLPGSYVINVTVPGHDSYLTKLTIPGKSQPFSALKKDFHLPLRWQPDSISVSNPSCPMIPLYKFMPSHSAATKPSLGVFFMTLLYVFFK
modifications: full-length
B6: Q6UQ17 (protein, UniProt Q6UQ17 1-1335, looked up)
chain: MDGVHLGENLEDKDTEFTWEVKANDRTYHKQFKKKGFLCWRQKKYKSNAIHTAKYNIFSFLPLNLYEQFHRMSNLYFLFIIILQGIPEISTLPWFTLFAPLVCLFVIRATRDLVDDIGRHRSDKIINNRPCQILRGKSFLWKKWKNLCVGDVVCLSKDSIVPADLLLLASTEPSSLCYVETADIDGETNLKFRQALTVTHHELTSPKKMASFQGTVTCEEPNSRMHHFVGSLEWNSRKYPLDIGNLLLRGCKIRNTDTCYGLVIYAGLDTKIMKNCGKIHLKRTKLDLMMNKLVALIFLSLVIASLLLTVGFTFMVKQFKAKHYYMSPTHGRSDAMESFFIFWGFLILLSVMVPMAMFIIAEFIYLGNSIFINWDLNMYYEPLDMPAKARSTSLNDQLGQVQYIFSDKTGTLTQNIMTFKKCCINGCIYDSDDEHGTLRKRNPYAWNPFADGKLQFYNKELESLVQGRQDRAVQEFWRLLAICHTVMVQEKDNQLLYQAASPDEEALVTAARNFGYVFLSRTQDTITLVELGEERVYQVLAMMDFNSVRKRMSVLVRNPEGSICLYTKGADTVILERLRSKGVMEATTEEVLAAFAEQTLRTLCLAYKDVEEDAYKEWEPEHQEAALLLQNRAQALHQVYNKMEQNLQLLGATAIEDKLQDGVPETIKCLKKGNIKIWVLTGDKPETAVNIGFACQLLSENMIILEDKDINQVLERYWEDNVHQKAFKMMTHHNMALVINGEFLDQLLLSLRKEPRALVQNAVVDEVAQEPVVSALDFLQKRRISQMWRNAGPSLGTSHSADSKIRESPEVQRERAFVDLASKCQAVICCRVTPKQKALVVALVKKYQQVVTLAIGDGANDVNMIKTADIGVGLAGQEGMQAVQNSDYVLAQFCYLQRLLLVHGRWSYMRVCKFLRYFFYKTVASMMAQIWFSLVNGFSAQPLYEGWFLALFNLLYSTLPVLYIGLFEQDVTAEKSLKMPELYMAGQKGELFNYSIFMQAITHGTITSMINFFVTVMVSSDMSKAGSSHDYQSLGVLVAISSLLSVTLEVMLVVKYWTLLFVGAVVLSLSSYVLMTSLTQSLWMYRISPKTFPFLFADYNVLFEPCSLLLIVLNVALNVLPMLALRTIHRTVLKQRPKGEEEAPSEEVAVEPAMRHLRRGIPARRSSYAFSHREGYANLITQGTILRRQTHVDDSDGGTVCESLNPPEEDIPLQNKDSVFNPRKISILAKKRRHFFGKGSQEEVHPNTSSQTMEKQPTIHRDSETQKLPTTTSATSGKLLPSASEDEAFYSVASQYTLASQPKHTDVHSSFWKSPLWRDSASSSPSQLEVPRKQS
modifications: full-length
B7: Q7TNV0 (protein, UniProt Q7TNV0 1-380, looked up)
chain: MSAAAAPAAEGEDAPVPPSSEKEPEMPGPREESEEEEEDDEDDDEEDEEEEKEKSLIVEGKREKKKVERLTMQVSSLQREPFTVTQGKGQKLCEIERIHFFLSKKKPDELRNLHKLLYNRPGTVSSLKKNVGQFSGFPFEKGSTQYKKKEEMLKKFRNAMLKSICEVLDLERSGVNSELVKRILNFLMHPKPSGKPLPKSKKSSSKGSKKERNSSGTTRKSKQTKCPEILSDESSSDEDEKKNKEESSEDEEKESEEEQPPKKTSKKEKAKQKATAKSKKSVKSANVKKADSSTTKKNQKSSKKESESEDSSDDEPLIKKLKKPPTDEELKETVKKLLADANLEEVTMKQICKEVYENYPAYDLTERKDFIKTTVKELIS
modifications: full-length

System: intracellular proteome of ENR+CD and ENR organoids
Test: LC-MS/MS TMT proteomics of ENR+CD versus ENR organoids
Assay type: cell-based, C57BL/6 mice
Settings: ENR+CD versus ENR organoids, sample pairs in aggregate (n=4, 2 technical replicates from two biological donors)

Row | Molecule | Average logFC
1 | B1 | −1.143
2 | B2 | 1.301
3 | B3 | 1.363
4 | B4 | 1.241
5 | B5 | 1.366
6 | B6 | 1.464
7 | B7 | −1.42

Same assay, conditions: protein abundance ratio ENR+CD versus ENR organoids, sample pair M1-1; LC-MS/MS TMT proteomics

Row | Molecule | M1-1 Log2 Median Normalized
8 | B1 | −1.562
9 | B2 | 0.917
10 | B3 | 1.2
11 | B4 | 1.195
12 | B5 | 1.517
13 | B6 | 1.126
14 | B7 | −1.8

Same assay, conditions: protein abundance ratio ENR+CD versus ENR organoids, sample pair M1-2; LC-MS/MS TMT proteomics

Row | Molecule | M1-2 Log2 Median Normalized
15 | B1 | −0.715
16 | B2 | 1.005
17 | B3 | 0.548
18 | B4 | 1.666
19 | B5 | 1.383
20 | B6 | 1.134
21 | B7 | −0.726

Same assay, conditions: protein abundance ratio ENR+CD versus ENR organoids, sample pair M2-1; LC-MS/MS TMT proteomics

Row | Molecule | M2-1 Log2 Median Normalized
22 | B1 | −0.9435
23 | B2 | 1.5695
24 | B3 | 1.8455
25 | B4 | 0.7645
26 | B5 | 1.3355
27 | B6 | 1.7555
28 | B7 | −1.2915

Same assay, conditions: protein abundance ratio ENR+CD versus ENR organoids, sample pair M2-2; LC-MS/MS TMT proteomics

Row | Molecule | M2-2 Log2 Median Normalized
29 | B1 | −1.351
30 | B2 | 1.711
31 | B3 | 1.859
32 | B4 | 1.337
33 | B5 | 1.228
34 | B6 | 1.841
35 | B7 | −1.861

Same assay, conditions: up = enriched in ENR+CD, down = enriched in ENR; FDR<0.05 and log fold change cut-off

Row | Molecule | change
36 | B1 | down
37 | B2 | up
38 | B3 | up
39 | B4 | up
40 | B5 | up
41 | B6 | up
42 | B7 | down

Reference: patent US11994512B2, “Single-cell genomic methods to generate ex vivo cell systems that recapitulate in vivo biology with improved fidelity” (Massachusetts Institute of Technology, priority 2018, dated 2024)
